# Values of other authors as cited in article PMC4961565.
# Biological target: Asp309 (UniProt position 309, LIAAPDTMSVS)
# Test: other
substance,measurement,value
Cytochrome P450 19A1 (aromatase) (Homo sapiens),pKa,8.2
